Patent US11713337B2, “Peptide, compositions and method for delivery of agents into cells and tissues” (priority 2019, dated 2023)
Several values for one entry are separate records, joined by “and”; a condition that tells them apart may be missing. Equal entries are not always repeated. Entries after “also recorded” stand apart in the source; their conditions may differ. Peptide text beside a SMILES is read from it. * marks the point of attachment. 5FAM = O=C1OC2(c3ccc(O)cc3Oc3cc(O)ccc32)c2ccc(C(=O)*)cc21

Key:
retina [1] = assay: Retinal penetration of FAM-labeled Nuc1 after intravitreal injection
Experimental: Intravitreal and subretinal injections: Mice were anesthetized by injecting intraperitoneally a cocktail mixture containing Ketamine (100 mg/kg, Phoenix™, St Joseph, Mo.) and Xylazine (10 mg/kg, Lloyed, Shenandoah, Iowa) followed by topical application of 0.5% proparacaine hydrochloride (Akorn Inc., Lake Forest, Ill., USA) for topical analgesia to the cornea. Mice were kept warm during anesthesia. lntravitreal and subretinal injections were performed using a 32-gauge needle and a 5μI glass syringe, as previously described (Cashman et al., 2015). […] Four hours post injection (as indicated), eyes were enucleated and fixed in 4% paraformaldehyde. […] Retinal cryosections were taken using a Micron 550 cryostat.
Four hours post injection, eyes of these mice were enucleated and fixed in 4% paraformaldehyde. Retinal cryosections were generated using a Micron 550 cryostat and sections were imaged using a fluorescent microscope.

retina [2] = conditions: 1 μg dexamethasone alone or with 1 μg Nuc1
Experimental: We hypothesized that Nuc1 may facilitate penetration of steroids into tissues, enabling a steroid to be applied in a reduced dosage without loss of efficacy. To test this hypothesis, we injected either 1 μg fluorescently labeled dexamethasone alone or fluorescently labeled dexamethasone in combination with 1 μg Nuc1.

[3] = system: gliosis in the retina after alkali burn; assay: Alkali burn of the cornea: GFAP staining of retina (gliosis); format: in vivo, C57BL/6 mice; conditions: topical to cornea for 7 days after alkali burn
Text: (§1) Mice were kept warm during anesthesia. Alkali burn was induced in the cornea by applying 2 mm filter paper discs soaked with 1N sodium hydroxide (NaOH) on the central cornea of the right eye for 30 seconds. The filter paper was gently removed from the cornea and the cornea rinsed with phosphate buffered saline (PBS) 10 times to clear residual NaOH. The left eye was left unexposed to NaOH and served as a control. […] The treatments were applied topically once a day for seven days. Images of the eye were captured on day 7 using a digital camera. After 7 days, mice were sacrificed by CO2 inhalation, followed by cervical dislocation. The eyes were enucleated and fixed in 4% paraformaldehyde. Corneal cryosections were taken using a Micron 550 cryostat.
Immunochemistry: Cryosections were air dried for 10 minutes and washed in PBS for 5 minutes. They were subsequently incubated in 6% normal goat serum and PBS-Triton for 1 hour at room temperature for permeabilization and blocking. The slides were incubated with FITC-conjugated isolectin or with primary antibody against one of following: α-smooth muscle actin (SMA), glial fibrillary acidic protein (GFAP), CD45, transforming growth factor beta (TGF-β1), F4/80, transforming growth factor beta (TGF-β1) (Abcam; ab92486), or activated Caspase-3. […] The intensity of the antibody specific staining was quantified using ImageJ software. […]

[4] = system: alkali burn of the cornea; assay: Alkali burn of the cornea: TUNEL assay on corneal cryosections; format: in vivo, C57BL/6 mice; conditions: 7 days topical treatment
Text: as §1
TUNEL assay: To detect cell death, the terminal deoxynucleotidyl transferase-mediated dUTP-biotin nick-end labeling (TUNEL) method was performed on corneal cryosections using the In Situ Death Detection Kit, TMR Red (Sigma), as per the manufacturer's instructions. The sections were imaged, as described above, and images used for quantification of TUNEL positive cells using ImageJ (FIJI version and plug in), as previously described.

[5] = system: alkali burn of the cornea; assay: Alkali burn of the cornea: corneal opacity and H+E histology; format: in vivo, C57BL/6 mice
Text: as §1
Histopathology: The eyes were harvested for histology 7 days post-treatment and fixed in Hartman's fixative. After 48 hours, the specimens were dehydrated through alcohol steps and embedded in paraffin. […] sections were cut at different planes, including the optic nerve region, and stained with Hematoxylin & Eosin (H&E). Imaging of stained sections was performed using an Olympus BX51 microscope using a Retiga 2000r camera.
On day 7, mice were sacrificed for imaging of corneas (FIG. 14A). […] Mice were scored for clinical opacity based on method described by Anderson et al.. […]

[6] = system: alkali burn of the cornea; assay: Alkali burn of the cornea: staining of corneal cryosections (isolectin, SMA, CD45, F4/80, TGF-β1, activated Caspase-3); format: in vivo, C57BL/6 mice
Text: The filter paper was gently removed and the cornea was rinsed with phosphate buffered saline (PBS) 10 times. […] The treatments were applied topically once a day for seven days. After 7 days, mice were sacrificed by CO2 inhalation. Eyes were enucleated and fixed in 4% paraformaldehyde. Corneal cryosections were taken using a Micron 550 cryostat and stained for α-actin, a marker of fibrosis.
as §1
Immunochemistry: Cryosections were air dried for 10 minutes and washed in PBS for 5 minutes. They were subsequently incubated in 6% normal goat serum and PBS-Triton for 1 hour at room temperature for permeabilization and blocking. The slides were incubated with FITC-conjugated isolectin or with primary antibody against one of following: α-smooth muscle actin (SMA), glial fibrillary acidic protein (GFAP), CD45, transforming growth factor beta (TGF-β1), F4/80, transforming growth factor beta (TGF-β1) (Abcam; ab92486), or activated Caspase-3. This incubation was performed at 4° C. in a moist chamber overnight. For samples treated with antibodies, detection was performed by incubation with a secondary Cy3-conjugated goat anti-rabbit/anti-mouse antibody (Jackson lmmunoResearch, West Grove, Pa.) for 1 hour at room temperature. The slides were washed three times with PBS and mounted in Vectashield anti fade mounting medium containing DAPI to counterstain the nuclei. Imaging of stained sections was performed using an Olympus IX51 microscope and appropriate filters. Images were captured using a Retiga 2000r camera. The intensity of the antibody specific staining was quantified using ImageJ software.

[7] = system: alkali burn of the cornea; assay: Alkali burn of the cornea: multiplex ELISA of cytokines in corneal lysates; format: in vivo, C57BL/6 mice; conditions: 7 days topical treatment, Bioplex
Text: as §1
Multiplex ELISA: Multiplex ELISA was performed to detect IL-6, IL-17, IL-10, IFN-G, TNF-α, and IL-1β using Bio-plex pro mouse cytokineTh17 A 6 plex group I (Bio-Rad, M6000007NY), as per the manufacturer's instructions. Briefly, alkali burn was induced as described above. Mice were sacrificed on day 7 and corneas were extracted. The corneas were dissected into small pieces and stored at −80° C. in Bioplex cell lysis buffer. Two corneas were pooled together for each sample and 50 μl of the lysate was used in duplicate for each sample. The samples were run using the Bio plex manager MP software and the data was analyzed using Bioplex manager 6.0.

[8] = system: floxed stop tdTomato reporter in retina; assay: Cre recombinase uptake and gene editing in Ai9 reporter mice (tdTomato); format: in vivo; conditions: 4 micrograms Cre recombinase alone or with 1 microgram Nuc1, intravitreal
Text: In these mice, a reporter tdTomato transgene expression cassette is turned on when a foxed stop codon is excised by Cre recombinase. […] The observation that Cre recombinase can enter cells by itself was surprising. However, the above assay is highly sensitive due to the fact that one gene editing event is substantially amplified through the continuous production of protein that accumulates in the cell.

O=C(O)c1ccc2c(c1)C1(OC2=O)c2ccc(O)cc2Oc2cc(O)ccc21 [6-FAM, reference compound]
localization in retina (fluorescence microscopy of cryosections) (retina [1]; 1 ug in 1 ul H2O intravitreal, four hours post injection, adult mice): unable to penetrate retina

CC[C@H](C)[C@H](NC(=O)[C@H](CO)NC(=O)[C@H](C)NC(=O)c1ccc2c(c1)C(=O)OC21c2ccc(O)cc2Oc2cc(O)ccc21)C(=O)N[C@@H](CCCCN)C(=O)N[C@H](C(=O)N[C@@H](C)C(=O)N[C@H](C(=O)N[C@@H](CO)C(=O)N[C@@H](C)C(=O)NCC(=O)NCC(=O)N[C@@H](CC(=O)O)C(=O)N[C@@H](CCCCN)C(=O)N1CCC[C@H]1C(=O)N[C@@H](CCCNC(=N)N)C(=O)N[C@@H](CCCNC(=N)N)C(=O)O)C(C)C)C(C)C [FAM labeled Nuc1] (5FAM-ASIKVAVSAGGDKPRR-OH)
localization in retina (fluorescence microscopy of cryosections) (retina [1]; mouse, in vivo): localized to all layers of the retina

C[C@@H]1C[C@H]2[C@@H]3CCC4=CC(=O)C=C[C@]4(C)[C@@]3(F)[C@@H](O)C[C@]2(C)[C@@]1(O)C(=O)CO [dexamethasone]
uptake of fluorescently labeled dexamethasone into the retina (retina [2]): taken up into the retina

B1: decorin: human recombinant decorin, a small leucine rich proteoglycan (protein, UniProt P07585 31-359, looked up)
Decorin: DEASGIGPEVPDDRDFEPSLGPVCPFRCQCHLRVVQCSDLGLDKVPKDLPPDTTLLDLQNNKITEIKDGDFKNLKNLHALILVNNKISKVSPGAFTPLVKLERLYLSKNQLKELPEKMPKTLQELRAHENEITKVRKVTFNGLNQMIVIELGTNPLKSSGIENGAFQGMKKLSYIRIADTNITSIPQGLPPSLTELHLDGNKISRVDAASLKGLNNLAKLGLSFNSISAVDNGSLANTPHLRELHLDNNKLTRVPGGLAEHKYIQVVYLHNNNISVVGSSDFCPPGHNTKKASYSGVSLFSNPVQYWEIQPSTFRCVYVRSAIQLGNYK
GFAP staining of retina (Muller cell activation, gliosis) [3]: reduced staining relative to the retinas of mice treated with PBS
TUNEL staining of cornea, images (cell death) [4]: considerable reduction in TUNEL staining in the corneal stroma
reduction in TUNEL staining relative to PBS (quantification) [4]: 44.8%
corneal histology (H+E transverse sections) ([5]; 7 days topical treatment, relative to PBS): increase in thickness of the epithelium; also recorded: vacuolization was apparent
clinical opacity score (method of Anderson et al.) ([5]; topical once daily for 7 days from 24 hours post alkali burn, PBS scored 4): 2.8
CD45 staining of cornea, images (leukocytes) ([6]; 7 days topical treatment): reduction in CD45 and F4/80 staining in the anterior region of the stroma
F4/80 staining of cornea, images (macrophages) ([6]; 7 days topical treatment): reduction in CD45 and F4/80 staining in the anterior region of the stroma
SMA staining of cornea, images (fibrosis) ([6]; 7 days topical treatment): modest reduction of SMA staining
TGF-β1 expression in cornea (antibody staining) ([6]; 7 days topical treatment): lower expression of TGF-β1
activated Caspase-3 staining of cornea, images, relative to PBS treated mice ([6]; 7 days topical treatment): considerable reduction in the staining for activated Caspase-3 in the stroma and endothelium
isolectin (GSL I) staining of cornea, images (neovascularization) ([6]; 7 days topical treatment): obvious reduction in isolectin staining
reduction in CD45 staining / CD45-positive cells relative to corneas treated with PBS ([6]; 7 days topical treatment): 39.6%
reduction in F4/80 staining relative to corneas treated with PBS ([6]; 7 days topical treatment): no significant reduction
reduction in isolectin staining relative to PBS treated corneas (quantification) ([6]; 7 days topical treatment): not significantly different to that of PBS treated corneas
reduction in activated Caspase-3 staining (quantification of fluorescent signal) ([6]; 7 days topical treatment, reference PBS treated (implied)): 51.5%
reduction in α-actin (SMA) staining relative to PBS (fibrosis) ([6]; topical 0.5 μg decorin with or without 0.5 μg Nuc1 once a day for seven days, from 24 hours after NaOH): 33.3% and 33.25%
IFN-G expression in corneal lysate relative to PBS treated mice [7]: reduction in expression
IL-1β expression in corneal lysate [7]: increased expression
IL-6 expression in corneal lysate relative to PBS treated mice [7]: reduction in expression
IL-17 expression in corneal lysate relative to PBS treated mice [7]: reduction in expression
TNF-α expression in corneal lysate relative to PBS treated mice [7]: reduction in expression

B2: Cre recombinase: Cre recombinase protein, approximately 38 Kd (protein, UniProt P06956 1-343, looked up)
Recombinase cre: MSNLLTVHQNLPALPVDATSDEVRKNLMDMFRDRQAFSEHTWKMLLSVCRSWAAWCKLNNRKWFPAEPEDVRDYLLYLQARGLAVKTIQQHLGQLNMLHRRSGLPRPSDSNAVSLVMRRIRKENVDAGERAKQALAFERTDFDQVRSLMENSDRCQDIRNLAFLGIAYNTLLRIAEIARIRVKDISRTDGGRMLIHIGRTKTLVSTAGVEKALSLGVTKLVERWISVSGVADDPNNYLFCRVRKNGVAAPSATSQLSTRALEGIFEATHRLIYGAKDDSGQRYLAWSGHSARVGAARDMARAGVSIPEIMQAGGWTNVNIVMNYIRNLDSETGAMVRLLEDGD
tdTomato positive Muller cells [8]: almost no Muller cells expressing tdTomato
tdTomato reporter expression in retina [8]: detectable tdTomato expression
